Results as given in patent CN110684105A.

Molecular target: 重组HSP90蛋白 (recombinant HSP90 protein expressed in E. coli BL21 from pET-30a-HSP90) (human) (UniProt P08238)
Test: indirect ELISA, HSP90 recombinant protein coated at 1 μg/mL, antibody diluted 1:10^3 to 1:10^6, HRP goat anti-mouse

效价 (ELISA titer, dilution factor) (dilution factor): 100000
B1: 抗HSP90单克隆抗体 46-2-C9 (anti-HSP90 monoclonal antibody from hybridoma 46-2-C9, purified from mouse ascites) (antibody, V domains shown)
VH: EVQLQQSGPELVKPGASVKISCKASGYSFTGYYMHWVKQSHVKSLEWIGRINPYNGATSYNQNFKDKASLTVDKSSSTAYMELHSLTSEDSAVYYCARSKKYGNYTWFAYWGQGTLVTVSA
VL: DVQMTQSQKFMSTSVGDRVSVTCKASQNVGTNVAWYQQKPGQSPKALIYSASYRYSGVPDRFTGSGSGTDFTLTISNVQSEDLAEYFCQQYNSYIFTFGSGTKLEIKR
